B1: recombinant mouse IL-10 (mIL-10) (ligand, UniProt P18893 19-178, looked up)
chain: SRGQYSREDNNCTHFPVGQSHMLLELRTAFSQVKTFFQTKDQLDNILLTDSLMQDFKGYLGCQALSEMIQFYLVEVMPQAEKHGPEIKEHLNSLGEKLKTLRMRLRRCHRFLPCENKSKAVEQVKSDFNKLQDQGVYKAMNEFDIFINCIEAYMMIKMKS
B2: rat anti hIL-10 mAb 12G8 (r12G8): JES3.12G8 (antibody, V domains shown)
VH: EVQLVESGGGLVRPGGSLRLSCTASGFTFSDYHMAWVRQSPDKGLEWVASITLDATYTYYRDSVRGRFTISRNNAKTTLYLQMDSLRSEDTATFYCTRHRGFSVWLDYWGQGVMVTVSS
VL: DIQMTQSPSLLSASVGDRVTLNCKTSQNIFENLAWYQQKLREPPKLLIFNASPLQAGIPSRFSGSGSGTDFTLTITSLQPEDVATYFCHQYYSGYTFGPGTKLELKR
notes: Rat monoclonal antibody; also called Rat 12G8; JES.12G8
B3: Monoclonal humanized antibody SCH 708980 to recombinant human IL-10 (humanized 12G8) (antibody, human IgG1, kappa, V domains shown)
VH: QVQLVESGGGVVQPGRSLRLSCAASGFTFSDYHMAWVRQAPGKGLEWVASITLDATYTYYRDSVRGRFTISRDNSKNTLYLQMNSLRAEDTAVYYCARHRGFSVWLDYWGQGTLVTVSS
VL: DIQMTQSPSSLSASVGDRVTITCKTSQNIFENLAWYQQKPGKAPKLLIYNASPLQAGVPSRFSGSGSGTDFTLTISSLQPEDFATYYCHQYYSGYTFGPGTKLELKR
notes: also called h12G8; hu12G8
B4: recombinant cyno IL-10 (cyno IL-10) (ligand, UniProt P79338 19-178, looked up)
chain: SPGQGTQSENSCTRFPGNLPHMLRDLRDAFSRVKTFFQMKDQLDNILLKESLLEDFKGYLGCQALSEMIQFYLEEVMPQAENHDPDIKEHVNSLGENLKTLRLRLRRCHRFLPCENKSKAVEQVKNAFSKLQEKGVYKAMSEFDIFINYIEAYMTMKIRN
B5: recombinant human IL-10 dimer (hIL-10-dimer) (ligand, UniProt P22301 19-178, looked up)
chain: SPGQGTQSENSCTHFPGNLPNMLRDLRDAFSRVKTFFQMKDQLDNLLLKESLLEDFKGYLGCQALSEMIQFYLEEVMPQAENQDPDIKAHVNSLGENLKTLRLRLRRCHRFLPCENKSKAVEQVKNAFNKLQEKGIYKAMSEFDIFINYIEAYMTMKIRN
notes: also called hu IL-10

Key:
[1] = biological target: T1, recombinant hIL-10Ra (hIL-10Ra): FLAG-tagged protein (human, UniProt Q13651 22-235); assay: competitive ECLA (IGEN): unlabeled IL-10 against hIL-10-biotin for FLAG-tagged hIL-10Ra
T1 construct: The order of the receptor part and the FLAG tag is unknown; also called huIL-10Ra; not shown: FLAG tag
T1 sequence (looked up): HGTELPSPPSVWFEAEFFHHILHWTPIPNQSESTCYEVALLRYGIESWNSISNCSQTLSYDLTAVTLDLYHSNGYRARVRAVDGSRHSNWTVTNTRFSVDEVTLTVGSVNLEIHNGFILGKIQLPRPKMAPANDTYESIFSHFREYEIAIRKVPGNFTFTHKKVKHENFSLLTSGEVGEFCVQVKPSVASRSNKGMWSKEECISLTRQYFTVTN
Excerpt: Materials used. 96 well Polypropylene plates (Costar, Cat. No. 3365, Fisher Sci. Cat. No. 07200697); assay buffer of 0.1% BSA, 0.05% tween 20, PBS pH 7.5; paramagnetic beads (Streptavidin-Dynabeads, Igen, Inc., Cat. No. 110029); recombinant human IL-10 dimer (hIL-10-dimer); recombinant human IL-10-monomer (hlL-10-mono); recombinant mouse IL-10 (mIL-10); recombinant cyno IL-10 (cyno IL-10); and recombinant hIL-10Ra (hL-10Ra): FLAG-tagged protein. Ori-Tag labeled anti-FLAG M2 monoclonal antibodies were prepared using Ori-Tag-NHS ester (Igen, Inc. Cat. No. 110034) according to manufacturer's protocol (OriTag label: IgG challenge ratio 8:1). Anti-Flag M2 monoclonal antibodies were purchased from Sigma (Cat. No. F3165). Ori-Tag labeled anti hIgG 1A2 monoclonal antibodies were prepared as above using rat anti hIgG monoclonal antibodies. Ori-Tag labeled anti rat IgG antibodies were prepared as above from polyclonal Goat anti rat IgG (H+L) antibodies (Jackson Immunoresearch Laboratories, Inc. PA, Cat. No. 112-005-143). […]
Protocol. ⅓ serial dilutions in 50 microliters of the assay buffer were made in 96-well microtiter plate for all unlabeled IL-10 preparations (mIL-10, cyno IL-10, hIL-10 dimer, hIL-10 mono) starting with 3 μg/ml in the first well. […] Percent inhibition of the signal by unlabeled IL-10 preparations was calculated relative to the control samples. […]

[2] = biological target: B3; assay: IGEN competitive ECLA, mean ± S.D. (n); summary of Table 15
Excerpt: (§1) Materials used. 96 well Polypropylene plates (Costar, Cat. No. 3365, Fisher Sci. Cat. No. 07200697); assay buffer of 0.1% BSA, 0.05% tween 20, PBS pH 7.5; paramagnetic beads (Streptavidin-Dynabeads, Igen, Inc., Cat. No. 110029); recombinant human IL-10 dimer (hIL-10-dimer); recombinant human IL-10-monomer (hlL-10-mono); recombinant mouse IL-10 (mIL-10); recombinant cyno IL-10 (cyno IL-10); and recombinant hIL-10Ra (hL-10Ra): FLAG-tagged protein. Ori-Tag labeled anti-FLAG M2 monoclonal antibodies were prepared using Ori-Tag-NHS ester (Igen, Inc. Cat. No. 110034) according to manufacturer's protocol (OriTag label: IgG challenge ratio 8:1). Anti-Flag M2 monoclonal antibodies were purchased from Sigma (Cat. No. F3165). Ori-Tag labeled anti hIgG 1A2 monoclonal antibodies were prepared as above using rat anti hIgG monoclonal antibodies. Ori-Tag labeled anti rat IgG antibodies were prepared as above from polyclonal Goat anti rat IgG (H+L) antibodies (Jackson Immunoresearch Laboratories, Inc. PA, Cat. No. 112-005-143). Biotinylated recombinant human IL-10 (hIL-10-biotin) was prepared using TFP-PEO-biotin (Pierce, Cat. No. 21219) according to manufacturer's recommendations (Pierce bulletin 0874). The rat anti hIL-10 mAb 12G8 (r12G8): JES3.12G8 and humanized anti hIL-10 mAb 12G8 (hl2G8-1) were prepared as described herein.
(§2) Protocol. ⅓ serial dilutions in 50 microliters of the assay buffer were made in 96-well microtiter plate for all unlabeled IL-10 preparations (mIL-10, cyno IL-10, hIL-10 dimer, hIL-10 mono) starting with 3 μg/ml in the first well. All samples were run in duplicates. 50 μl of hIL-10-biotin at 25 ng/ml was added to each well, followed by the addition of either hIL-10Ra (50 μl at 100 ng/ml) or […] (50 μl at 10 ng/ml). 50 microliters of Ori-Tag conjugated secondary antibodies was added to each well at 500 ng/ml conc. For hIL-10Ra, r12G8 and h12G8 the following Ori-Tag conjugated were used accordingly: anti-FLAG M2-OriTag, anti-rat IgG-OriTag and anti hIgG 1A2-OriTag. Finally to each well 50 μl of Streptavidin-Dynabeads at 0.1 mg/ml was added. After a one hour incubation at room temperature the plate was processed by the M-series M8/384 analyzer. Percent inhibition of the signal by unlabeled IL-10 preparations was calculated relative to the control samples. To plot the data and calculate IC₅₀ the GraphPad Prism Software was used.

[3] = biological target: B2; assay: as above
Excerpt: as §1, §2

[4] = biological target: B3; assay: competitive ECLA (IGEN): unlabeled IL-10 varied, competitor hIL-10-biotin
Excerpt: as §1, §2

[5] = biological target: B2; assay: as above
Excerpt: as §1, §2

[6] = biological target: B5; assay: KinExA, mean (n)
[7] = biological target: B5; assay: Biacore, mean ± S.D. (n); format not described
[8] = biological target: B1; assay: Biacore, mean ± S.D. (n); format not described
[9] = biological target: B4; assay: Biacore, mean ± S.D. (n); format not described
[10] = biological target: B1; assay: KinExA, solution equilibrium, mIL-10 run #2
Method: (§3) The equilibrium dissociation constant (Kd) for humanized antibody SCH 708980 was determined using KinExA 3000 (Sapidyne Instruments Inc.). KinExA uses the principle of the Kinetic Exclusion Assay method based on measuring the concentration of uncomplexed antibody in a mixture of antibody, antigen and antibody-antigen complex. The concentration of free antibody was measured by exposing the mixture to a solid-phase immobilized antigen for a very brief period of time. In practice, this was accomplished by flowing the solution phase antigen-antibody mixture past antigen coated particles trapped in a flow cell. Data generated by the instrument were analyzed using custom software. Equilibrium constants were calculated using a mathematical theory based on the following assumptions: [0139] 1. The binding follows the reversible binding equation for equilibrium: Kₒₙ[Ab][Ag]=Koff[AbAg] [0140] 2. Antibody and antigen bind 1:1, and total antibody equals antigen-antibody complex plus free antibody [0141] 3. Instrument signal is linearly related to free antibody concentration
(§4) For mIL-10 runs the following conditions were used: [0154] […] Sample flow rate: 0.25 ml/min [0156] Label volume: 0.5 ml [0157] Label flow rate: […] [0158] mAb conc.: 1 nM [0159] Highest Ag (mIL-10) conc.: 50 nM [0160] Lowest Ag (mIL-10) conc.: 48.8 pM […]

[11] = biological target: B1; assay: KinExA, solution equilibrium, mIL-10 run #3
Method: as §3, §4

[12] = biological target: B4; assay: KinExA, solution equilibrium, cyno IL-10 run #3
Method: as §3
(§5) For cyno IL-10 runs the following conditions were used: [0163] Sample volume: 2 ml [0164] Sample flow rate: 0.25 ml/min [0165] Label volume: 1 ml [0166] Label flow rate: 0.25 ml/min [0167] mAb conc.: 0.1 nM [0168] Highest Ag (mIL-10) conc.: 5.0 nM [0169] Lowest Ag (mIL-10) conc.: 4.88 pM […]

[13] = biological target: B1; assay: KinExA, solution equilibrium, mIL-10 run #1
Method: as §3, §4

[14] = biological target: B5; assay: KinExA, solution equilibrium, hIL-10 run #3
Method: as §3
(§6) Experimental conditions: All runs were done in duplicate. For hIL-10 runs the following conditions were used: [0145] Sample volume: 1.5 ml [0146] Sample flow rate: 0.25 ml/min [0147] Label volume: 0.5 ml [0148] Label flow rate: 0.25 ml/min [0149] mAb conc.: 0.1 nM [0150] Highest Ag (hlL-10) conc.: 4.0 nM [0151] […]

[15] = biological target: B4; assay: KinExA, solution equilibrium, cyno IL-10 run #1
Method: as §3, §5

[16] = biological target: B5; assay: KinExA, mean ± S.D. (n) of the runs of Table 14
[17] = biological target: B1; assay: KinExA, mean ± S.D. (n) of the runs of Table 14
[18] = biological target: B4; assay: KinExA, mean ± S.D. (n) of the runs of Table 14
[19] = biological target: B4; assay: KinExA, solution equilibrium, cyno IL-10 run #2
Method: as §3, §5

[20] = biological target: B5; assay: KinExA, solution equilibrium, hIL-10 run #1
Method: as §3, §6

[21] = biological target: B5; assay: KinExA, solution equilibrium, hIL-10 run #2
Method: as §3, §6

[22] = biological target: T1, recombinant hIL-10Ra (hIL-10Ra): …; assay: competitive ECLA (IGEN): unlabeled IL-10 varied, competitor hIL-10-biotin
Excerpt: as §1, §2

| Binder | IC50 [2] [nM] | IC50 [3] [nM] | IC50 [4] [nM] | IC50 [5] [nM] | Kd [7] [nM] | Kd [8] [nM] | Kd [9] [nM] | IC50 [22] [nM] | also measured |
| --- | --- | --- | --- | --- | --- | --- | --- | --- | --- |
| B1 | 53 | 38 | 53 | 37.9 | – | – | – | – | binding result [1]: no binding (tested: unlabeled IL-10 titrated from 3 µg/ml) |
| B2 | – | – | – | – | 0.277 | 7.4 | 0.33 | – | Kd [6]: 0.023 nM |
| B3 | – | – | – | – | 0.511 | 8.6 | 0.659 | – | Kd [10]: 0.267 nM; Kd [11]: 0.308 nM; Kd [12]: 0.0925 nM; Kd [13]: 0.282 nM; Kd [14]: 0.0155 nM; Kd [15]: 0.0397 nM; Kd [16]: 0.025 nM; Kd [17]: 0.286 nM; Kd [18]: 0.076 nM; Kd [19]: 0.0966 nM; Kd [20]: 0.0274 nM; Kd [21]: 0.0323 nM |
| B4 | 4.9 | 6.6 | 4.9 | 6.6 | – | – | – | 17.6 | – |
| B5 | 4 | 4.7 | 4 | 4.7 | – | – | – | 2.9 | – |

Source: patent US20050101770A1 (SCHERING, published 2005)
